Measured values published in PMC7261193, “The ancillary N-terminal region of the yeast AP-1 transcription factor Yap8 contributes to its DNA binding specificity”.

Tests used:
[1] = target: GST-Yap8-7aa A23T;L26N;S29A;N31R;K35E;L37E;E39R (Saccharomyces cerevisiae) (UniProt Q06596); assay: fluorescence anisotropy; settings: FA: 10 mM Tris-HCl pH 8, 50 mM NaCl, 0.5% NP-40, 1 mM DTT, 5% glycerol, 1 nM DNA, 25C (half volume protein elution buffer). Biotin EMSA: LightShift 1x buffer …
[2] = target: GST-Yap8-8aa N20Q;A23T;L26N;S29A;N31R;K35E;L37E;E39R (Saccharomyces cerevisiae) (UniProt Q06596); assay: fluorescence anisotropy; settings: FA: 10 mM Tris-HCl pH 8, 50 mM NaCl, 0.5% NP-40, 1 mM DTT, 5% glycerol, 1 nM DNA, 25C (half volume protein elution buffer). Biotin EMSA: LightShift 1x buffer …
GST-Yap8-4aa = target: T1, GST-Yap8-4aa (Saccharomyces cerevisiae, UniProt Q06596 1-294, A23T;L26N;S29A;N31R); assay: EMSA; FA: 10 mM Tris-HCl pH 8, 50 mM NaCl, 0.5% NP-40, 1 mM DTT, 5% glycerol, 1 nM DNA, 25C (half volume protein elution buffer). Biotin EMSA: LightShift 1x buffer, 50 ng poly(dI-dC), 2.5% glycerol, 0.05% NP-40, 5 mM MgCl2, 20 fmol probe, RT 20 min. 32P EMSA: 10 mM Tris-HCl pH 8.0, 50 mM NaCl, 1 mM DTT, 0.05% NP-40, 100 ng poly(dI-dC), 6% glycerol, 4C 30 min; settings: protein: recombinant, tags: GST (N-term), chain copies: 2, blunt
T1 sequence: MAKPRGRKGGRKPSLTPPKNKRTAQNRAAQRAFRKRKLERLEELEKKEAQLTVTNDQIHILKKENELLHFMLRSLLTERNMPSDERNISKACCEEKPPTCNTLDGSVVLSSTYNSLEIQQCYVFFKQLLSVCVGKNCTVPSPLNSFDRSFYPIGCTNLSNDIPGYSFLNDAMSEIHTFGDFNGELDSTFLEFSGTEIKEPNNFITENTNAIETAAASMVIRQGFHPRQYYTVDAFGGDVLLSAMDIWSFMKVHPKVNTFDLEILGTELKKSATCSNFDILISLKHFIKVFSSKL

GST-Yap8-G10A = target: T2, GST-Yap8-G10A (Saccharomyces cerevisiae, UniProt Q06596 1-294, G10A); assay: as above; settings: protein: recombinant; tags: GST (N-term); chain copies: 2; blunt
T2 sequence: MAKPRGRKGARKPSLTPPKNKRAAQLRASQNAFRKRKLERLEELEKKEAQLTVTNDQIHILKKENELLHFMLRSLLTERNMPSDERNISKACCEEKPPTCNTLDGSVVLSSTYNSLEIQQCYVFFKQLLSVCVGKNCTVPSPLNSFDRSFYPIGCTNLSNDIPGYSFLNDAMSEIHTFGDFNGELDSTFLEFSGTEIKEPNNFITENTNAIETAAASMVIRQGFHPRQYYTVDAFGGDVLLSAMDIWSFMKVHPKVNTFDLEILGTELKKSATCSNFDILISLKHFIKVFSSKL

GST-Yap8-R11K = target: T3, GST-Yap8-R11K (Saccharomyces cerevisiae, UniProt Q06596 1-294, R11K); assay: as above; settings: protein: recombinant; tags: GST (N-term); chain copies: 2; blunt
T3 sequence: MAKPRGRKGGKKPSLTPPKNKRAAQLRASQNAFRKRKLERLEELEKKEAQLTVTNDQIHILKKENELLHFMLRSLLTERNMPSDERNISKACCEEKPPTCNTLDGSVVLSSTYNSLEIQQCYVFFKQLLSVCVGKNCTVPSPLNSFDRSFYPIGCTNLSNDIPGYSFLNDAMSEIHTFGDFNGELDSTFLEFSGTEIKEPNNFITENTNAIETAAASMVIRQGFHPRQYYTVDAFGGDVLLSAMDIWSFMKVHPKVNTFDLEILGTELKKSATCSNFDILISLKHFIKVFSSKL

GST-Yap8-R7K,R11K = target: T4, GST-Yap8-R7K,R11K (Saccharomyces cerevisiae, UniProt Q06596 1-294, R7K;R11K); assay: as above; settings: protein: recombinant; tags: GST (N-term); chain copies: 2; blunt
T4 sequence: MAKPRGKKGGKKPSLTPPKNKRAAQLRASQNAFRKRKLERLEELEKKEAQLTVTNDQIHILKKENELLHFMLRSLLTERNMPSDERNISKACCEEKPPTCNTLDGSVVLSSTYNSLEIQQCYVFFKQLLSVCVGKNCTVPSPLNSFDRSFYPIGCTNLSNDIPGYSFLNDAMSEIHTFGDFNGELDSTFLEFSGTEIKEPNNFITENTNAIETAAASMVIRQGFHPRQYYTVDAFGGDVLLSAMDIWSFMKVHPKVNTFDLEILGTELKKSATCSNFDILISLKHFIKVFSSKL

GST-Yap8-N20A = target: T5, GST-Yap8-N20A (Saccharomyces cerevisiae, UniProt Q06596 1-294, N20A); assay: as above; settings: protein: recombinant; tags: GST (N-term); chain copies: 2; label: 32P 5'; blunt
T5 sequence: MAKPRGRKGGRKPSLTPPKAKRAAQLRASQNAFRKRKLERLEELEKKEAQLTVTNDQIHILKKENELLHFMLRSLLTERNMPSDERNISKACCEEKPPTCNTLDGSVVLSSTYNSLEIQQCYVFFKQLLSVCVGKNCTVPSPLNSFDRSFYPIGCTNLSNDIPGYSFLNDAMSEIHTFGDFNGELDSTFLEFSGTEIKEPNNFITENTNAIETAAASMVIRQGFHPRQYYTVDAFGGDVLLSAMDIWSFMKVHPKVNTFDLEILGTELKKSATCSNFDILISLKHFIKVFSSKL

GST-Yap8-N20Q = target: T6, GST-Yap8-N20Q (Saccharomyces cerevisiae, UniProt Q06596 1-294, N20Q); assay: as above; settings: protein: recombinant; tags: GST (N-term); chain copies: 2; label: 32P 5'; blunt
T6 sequence: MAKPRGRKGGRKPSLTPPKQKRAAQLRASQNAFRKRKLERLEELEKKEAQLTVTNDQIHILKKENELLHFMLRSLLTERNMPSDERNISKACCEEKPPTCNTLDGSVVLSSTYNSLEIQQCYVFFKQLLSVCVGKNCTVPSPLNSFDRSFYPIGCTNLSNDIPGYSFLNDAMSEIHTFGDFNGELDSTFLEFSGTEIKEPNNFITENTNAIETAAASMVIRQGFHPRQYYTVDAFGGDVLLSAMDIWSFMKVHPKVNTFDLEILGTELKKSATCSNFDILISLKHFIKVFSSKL

GST-Yap8 WT [3] = target: T7, GST-Yap8 WT (Saccharomyces cerevisiae, UniProt Q06596 1-294); assay: as above; settings: protein: recombinant; tags: GST (N-term); chain copies: 2; label: 32P 5'; blunt
T7 sequence: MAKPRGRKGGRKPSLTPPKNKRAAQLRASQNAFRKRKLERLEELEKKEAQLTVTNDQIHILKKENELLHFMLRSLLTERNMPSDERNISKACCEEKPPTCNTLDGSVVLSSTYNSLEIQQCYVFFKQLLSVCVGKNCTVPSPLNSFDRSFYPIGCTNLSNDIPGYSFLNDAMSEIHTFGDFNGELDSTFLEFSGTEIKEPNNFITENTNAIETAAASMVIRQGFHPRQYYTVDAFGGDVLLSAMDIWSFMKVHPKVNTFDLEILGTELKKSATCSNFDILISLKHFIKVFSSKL

GST-Yap8 WT [4] = target: T7, GST-Yap8 WT; assay: fluorescence anisotropy; series c; FA: 10 mM Tris-HCl pH 8, 50 mM NaCl, 0.5% NP-40, 1 mM DTT, 5% glycerol, 1 nM DNA, 25C (half volume protein elution buffer). Biotin EMSA: LightShift 1x buffer, 50 ng poly(dI-dC), 2.5% glycerol, 0.05% NP-40, 5 mM MgCl2, 20 fmol probe, RT 20 min. 32P EMSA: 10 mM Tris-HCl pH 8.0, 50 mM NaCl, 1 mM DTT, 0.05% NP-40, 100 ng poly(dI-dC), 6% glycerol, 4C 30 min; settings: protein: recombinant; tags: GST (N-term); chain copies: 2; label: 5' FAM; blunt

Molecule: CTTTTTGTTTGATTAATAATCAACTTTAGCG (double strand) [ACR3-WT (FAM)]
- Kd [1]: 9.3 nM
- Kd [2]: 15.1 nM

B1: TRX2short (dsDNA)
DNA 1: ATTGTTTATACTCTTAGTAAAGGATGCTCCCTACAAGGTGGCTCTTTTCTTACTAAGCGCGTTCAGTTTC
DNA 2: GAAACTGAACGCGCTTAGTAAGAAAAGAGCCACCTTGTAGGGAGCATCCTTTACTAAGAGTATAAACAAT
- binding result (GST-Yap8-4aa; label: 32P 5'): no binding

B2: ACR3short (WT) (dsDNA)
DNA 1: TCTTAATTATCTTTTTGTTTGATTAATAATCAACTTTAGCGGCAACGCTCC
DNA 2: GGAGCGTTGCCGCTAAAGTTGATTATTAATCAAACAAAAAGATAATTAAGA
- binding result (GST-Yap8-G10A): no binding
- binding result (GST-Yap8-R11K): no binding
- binding result (GST-Yap8-R7K,R11K): no binding
- binding result (GST-Yap8-4aa): binds

B3: GSH1short (dsDNA)
DNA 1: TTCTGCCCAACGACGGCTGCCATTAGTCAGCATGGCGCGCACGTGACTACA
DNA 2: TGTAGTCACGTGCGCGCCATGCTGACTAATGGCAGCCGTCGTTGGGCAGAA
- binding result (GST-Yap8-N20A): no binding
- binding result (GST-Yap8-N20Q): no binding
- binding result (GST-Yap8 WT [3]): no binding

B4: ACR3-M3 (FAM) (dsDNA)
DNA 1: CTTTGCGGCTGATTAATAATCAACCGGAGCG
DNA 2: CGCTCCGGTTGATTATTAATCAGCCGCAAAG
- Kd (GST-Yap8 WT [4]): 19.4 ± 4.1 nM
